For orientation: Kd means the constant that tells how readily two partners part at equilibrium. Usually EC50 stands for the concentration needed to bring the measured effect to its halfway point.

Residue numbers refer to the chain shown, from its start.

First the molecules themselves.
T1: Mouse CLDN18 A2.1 (mouse, UniProt P56857 10-264)
T1 construct: On transfected HEK293-6E cells; also called Mouse CLDN18 2.1; mouse CLDN18.2 ortholog
T1 chain: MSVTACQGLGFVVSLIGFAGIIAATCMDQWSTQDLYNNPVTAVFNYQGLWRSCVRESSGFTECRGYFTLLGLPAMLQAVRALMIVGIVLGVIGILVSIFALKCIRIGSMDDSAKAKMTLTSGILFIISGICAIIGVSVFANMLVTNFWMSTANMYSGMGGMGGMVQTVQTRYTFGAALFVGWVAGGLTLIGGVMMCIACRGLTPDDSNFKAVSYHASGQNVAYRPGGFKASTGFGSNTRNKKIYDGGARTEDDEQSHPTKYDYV

T2: Cynomolgus monkey CLDN18 (cynomolgus monkey)
T2 construct: On transfected HEK293-6E cells; also called Cyno CLDN18; cynomologus monkey CLDN18.2 ortholog
T2 chain: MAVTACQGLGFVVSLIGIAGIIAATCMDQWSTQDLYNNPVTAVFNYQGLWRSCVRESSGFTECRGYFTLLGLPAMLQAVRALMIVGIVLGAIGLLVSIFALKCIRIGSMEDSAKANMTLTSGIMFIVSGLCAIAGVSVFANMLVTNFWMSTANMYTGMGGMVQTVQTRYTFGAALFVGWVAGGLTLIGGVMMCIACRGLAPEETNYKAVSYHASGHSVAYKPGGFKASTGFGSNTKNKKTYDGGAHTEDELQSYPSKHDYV

B1: v38744 (other)
heavy 1: EVQLVESGGGLVQPGGSLRLSCAASGVTFNYYGMSWIRQAPGKGLEWVASITSSGGRIYYPDSVKGRFTISRENTQKTLYLQMNSLRAEDTAVYYCTLDGRDGWVAYWGQGTLVTVSSASTKGPSVFPLAPSSKSTSGGTAALGCLVKDYFPEPVTVSWNSGALTSGVHTFPAVLQSSGLYSLSSVVTVPSSSLGTQTYICNVNHKPSNTKVDKKVEPKSCDKTHTCPPCPAPEAAGGPSVFLFPPKPKDTLMISRTPEVTCVVVSVSHEDPEVKFNWYVDGVEVHNAKTKPREEQYNSTYRVVSVLTVLHQDWLNGKEYKCKVSNKALPAPIEKTISKAKGQPREPQVYVYPPSRDELTKNQVSLTCLVKGFYPSDIAVEWESNGQPENNYKTTPPVLDSDGSFALVSKLTVDKSRWQQGNVFSCSVMHEALHNHYTQKSLSLSPGGGGGSGQVQLVESGGGLVQPGGSLRLSCSVSGIDLSSNPMIWVRQAPGKGLQYIGIIDTDGSTYYADWAKGRFTISKDSTTVYLQINSPRAEDTAVYYCARRLHGSSNGYYDDLWGQGTLVTVSSGGGGSGGGGSGGGGSGGGGSDGQMTQSPSSVSASVGDRVTITCQASQSIYSYLSWYQQKPGQRPKLLIYKASTLASGVPSRFSGSGSGTDFTLTISSVQPEDFATYYCQQGYTVTNVDKNTFGGGTKVEIK
light: NPPTFSPALLVVTEGDNATFTCSFSNTSESFVLNWYRMSPSNQTDKLAAFPEDRSQPGQDARFRVTQLPNGRDFHMSVVRARRNDSGTYLCGAISLAPKAQIKESLRAELRVTEGGGGSGNFMLTQPHSVSESPGKTVTISCKRNTGNIGSNYVNWYQQHEGSSPTTIIYRNDKRPDGVSDRFSGSIDRSSKSASLTISNLKTEDEADYFCQSYSSGFIFGGGTKLTVLGQPKAAPSVTLFPPSSEELQANKATLVCLISDFYPGAVTVAWKADSSPVKAGVETTTPSKQSNNKYAASSYLSLTPEQWKSHRSYSCQVTHEGSTVEKTVAPTECS
heavy 2: QVQLVESGGGLVQPGGSLRLSCSVSGIDLSSNPMIWVRQAPGKGLQYIGIIDTDGSTYYADWAKGRFTISKDSTTVYLQINSPRAEDTAVYYCARRLHGSSNGYYDDLWGQGTLVTVSSGGGGSGGGGSGGGGSGGGGSDGQMTQSPSSVSASVGDRVTITCQASQSIYSYLSWYQQKPGQRPKLLIYKASTLASGVPSRFSGSGSGTDFTLTISSVQPEDFATYYCQQGYTVTNVDKNTFGGGTKVEIKAAEPKSSDKTHTCPPCPAPEAAGGPSVFLFPPKPKDTLMISRTPEVTCVVVSVSHEDPEVKFNWYVDGVEVHNAKTKPREEQYNSTYRVVSVLTVLHQDWLNGKEYKCKVSNKALPAPIEKTISKAKGQPREPQVYVLPPSRDELTKNQVSLLCLVKGFYPSDIAVEWESNGQPENNYLTWPPVLDSDGSFFLYSKLTVDKSRWQQGNVFSCSVMHEALHNHYTQKSLSLSPG
notes: CD3 Fab with C-term Cldn18.2 scFv x Cldn18.2 scFv Fc with wildtype (WT) PD-1 attached to CD3 LC (N-term)
B2: v38741 (other)
heavy 1: B1 heavy 1
light: NPPTFSPALLVVTEGDNATFTCSFSNTSESFRLVWHRESPGYETDTLASFPEDRSTPLPDARFRVTQLPNGRDFHMSVVRARRNDSGTYVCGAIAFHPVIQIKESLRAELRVTEGGGGSGNFMLTQPHSVSESPGKTVTISCKRNTGNIGSNYVNWYQQHEGSSPTTIIYRNDKRPDGVSDRFSGSIDRSSKSASLTISNLKTEDEADYFCQSYSSGFIFGGGTKLTVLGQPKAAPSVTLFPPSSEELQANKATLVCLISDFYPGAVTVAWKADSSPVKAGVETTTPSKQSNNKYAASSYLSLTPEQWKSHRSYSCQVTHEGSTVEKTVAPTECS
heavy 2: B1 heavy 2
B3: v38743 (other)
heavy 1: B1 heavy 1
light: B1 light with A100L
heavy 2: B1 heavy 2
B4: v37407 (antibody, human IgG1, V domains shown)
VH: QVQLVESGGGLVQPGGSLRLSCSVSGIDLSSNPMIWVRQAPGKGLEYIGIIDTDGSTYYADWAKGRFTISKDSTTVYLQMNSLRAEDTAVYYCARRLHGSSNGYYDDLWGQGTLVTVSS
VL: DGQMTQSPSSVSASVGDRVTITCQASQSIYSYLSWYQQKPGQRPKLLIYKASTLASGVPSRFSGSGSGTDFTLTISSVQPEDFATYYCQQGYTVTNVDKNTFGGGTKVEIK
notes: Humanized, recombinant human IgG1-based monoclonal antibody; also called H4-L4
B5: v37409 (antibody, human IgG1, V domains shown)
VH: QVQLVESGGGLVQPGGSLRLSCSVSGIDLSSNPMIWVRQAPGKGLEYIGIIDTDGSTYYADWAKGRFTISKDSSKNTVYLQMNSLRAEDTAVYYCARRLHGSSNGYYDDLWGQGTLVTVSS
VL: B4 VL
notes: Humanized, recombinant human IgG1-based monoclonal antibody; also called H2-L4
B6: v37408 (antibody, human IgG1, V domains shown)
VH: B4 VH
VL: B4 VL with F83A, I110V
notes: Humanized, recombinant human IgG1-based monoclonal antibody; also called H4-L2
B7: v37411 (antibody, human IgG1, V domains shown)
VH: B4 VH with E46Q, M80I, L83P
VL: B4 VL
notes: Humanized, recombinant human IgG1-based monoclonal antibody; also called H5-L4
B8: v37410 (antibody, human IgG1, V domains shown)
VH: B5 VH with E46Q
VL: B4 VL
notes: Humanized, recombinant human IgG1-based monoclonal antibody; also called H3-L4

The target in one assay is Human CD3 (recombinant) (human). Briefly: SPR, CD3 amine-coupled, variant as analyte, 1:1 model. A general note: Surface plasmon resonance follows binding to a sensor surface in real time, without labels.
Human CD3 (recombinant) (human), sequence (chain, as listed by the source): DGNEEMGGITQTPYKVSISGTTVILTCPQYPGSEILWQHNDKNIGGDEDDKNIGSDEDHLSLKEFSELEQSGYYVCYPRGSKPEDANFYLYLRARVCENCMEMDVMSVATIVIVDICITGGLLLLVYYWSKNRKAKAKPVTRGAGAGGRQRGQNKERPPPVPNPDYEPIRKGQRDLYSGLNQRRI
Turning to B1, the Kd came to 190 nM.
Regarding B2, the Kd was determined as 18 nM.
Consider B3, for which the Kd turned out to be 120 nM.

A further assay has as its target T1, Mouse CLDN18 A2.1. Put plainly: FACS on transfected HEK293-6E cells, 4 parameter logistic fit.
The molecule B4 returned a Bmax of 1540 and an EC50 of 0.8 nM.
In the case of B5, the Bmax came to 1530 and the EC50 stood at 0.89 nM.
The matching figures for B6: 1920 and 2.65 nM.
The molecule B7 registered a Bmax of 1790 and a half-maximal effective concentration (EC50) of 1.03 nM.
B8 yielded a Bmax of 1690 and an EC50 of 1.02 nM.

In another assay the target is T2, Cynomolgus monkey CLDN18. Described as above.
The molecule B4 came in with a Bmax of 1410 and an EC50 of 0.24 nM.
Turning to B5, the Bmax was 1500 and the EC50 came out at 0.35 nM.
Take B6: the Bmax came to 1520 and the EC50 was determined as 0.36 nM.
Regarding B7, the Bmax is 1730 and a half-maximal effect (EC50) was put at 0.37 nM.
As for B8, the Bmax amounted to 1500 and the EC50 was 0.31 nM.

A further assay has as its target T3, Human CLDN18.2 (human).
T3 construct: On transfected HEK293-6E cells; also called Claudin18.2
Described as above.
On to B4, for which the Bmax was found to be 2040 and the midpoint of the response, the EC50, lay at 1.54 nM.
Turning to B5, the Bmax came to 1960 and the EC50 was 1.22 nM.
In turn, B6 returned a Bmax of 2190 and an EC50 of 1.87 nM.
In turn, B7 yielded a Bmax of 2170 and an EC50 of 1.05 nM.
Turning to B8, the Bmax came to 1910 and a half-maximal effect (EC50) was put at 0.97 nM.

Another assay deals with T4, Human PD-L1 (human, UniProt Q9NZQ7 19-239).
T4 construct: Amine-coupled to a CM5 chip for SPR; also called recombinant human PD-L1
T4 sequence (Q9NZQ7 19-239 limits assumed): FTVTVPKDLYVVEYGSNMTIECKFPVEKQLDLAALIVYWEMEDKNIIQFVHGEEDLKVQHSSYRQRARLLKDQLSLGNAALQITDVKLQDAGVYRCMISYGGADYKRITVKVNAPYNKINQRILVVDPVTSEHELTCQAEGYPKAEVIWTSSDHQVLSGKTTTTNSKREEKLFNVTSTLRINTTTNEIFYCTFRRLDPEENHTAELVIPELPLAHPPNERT
Put plainly: SPR, PD-L1 amine-coupled, variant as analyte, 1:1 model.
With B1, the Kd turned out to be 1900 nM.
In turn, B2 yielded a Kd of 95 nM.
B3: the Kd was determined as 220 nM.

The target in the next assay is T5, Human CLDN18.1 (human, UniProt P56856 1-261).
T5 construct: On transfected HEK293-6E cells
T5 sequence (P56856 whole entry): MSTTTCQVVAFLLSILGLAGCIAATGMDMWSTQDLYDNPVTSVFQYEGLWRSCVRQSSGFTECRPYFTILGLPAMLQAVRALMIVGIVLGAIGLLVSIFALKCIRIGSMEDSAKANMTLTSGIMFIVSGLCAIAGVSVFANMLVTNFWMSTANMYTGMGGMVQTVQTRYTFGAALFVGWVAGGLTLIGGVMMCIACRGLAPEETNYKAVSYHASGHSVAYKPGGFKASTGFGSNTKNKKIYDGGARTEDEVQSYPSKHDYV
Put plainly: FACS, Expi293F supernatants on transfected HEK293-6E cells. In general terms: In flow cytometry, cells or beads pass a laser one at a time.
Turning to B4, the binding result is listed as “no binding”.
For the molecule B5, the binding result was “no binding”.
B6: the binding result is recorded as “no binding”.
Consider B7, for which the binding result is “no binding”.
Still for that read-out and setting: then B8, with “no binding”.

Source of the values: patent US20250019440A1 (Zymeworks, published 2025).
